Measurements as given in patent US20240043507A1 (RQ BIOTECHNOLOGY, published 2024).
Changes are numbered by the printed parent chain.

B1: mAb 45 (antibody, V domains shown)
VH: QVQLVESGGGVVQPGRSLRLSCAASGFTFSTYAMHWVRQAPGKGLEWVAVLSYDGSNKYYADSVKGRFTISRDNSKNTLYLQMNSLRAEDTAVYYCAKGGSYAYYYYMDVWGKGTTVTVSS
VL: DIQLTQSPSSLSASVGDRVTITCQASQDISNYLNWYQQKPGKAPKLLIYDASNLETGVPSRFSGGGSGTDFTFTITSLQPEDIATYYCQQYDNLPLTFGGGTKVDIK
notes: also called antibody 45
B2: Fab 75 (Fab, V domains shown)
VH: QVQLVESGGGVVQPGRSLRLSCAASGFTFNNYPLHWVRQAPGKGPEWVAVISQDGGNKYYVDSVKGRFTISRDNSKNTLYLQMNNLRAEDTALYYCARDVVVVVAARNHYYNGMDVWGQGTTVTVSS
VL: DIQLTQSPSSVSASVGDRVTITCRASQGISSWLAWYQQKPGKAPKLLIYAVSSLQSGVPSRFSGSGSGTDFTLTISSLQPEDFATYYCQQAKSFPFTFGPGTKVEIK
notes: Fab
B3: antibody 278 (antibody, V domains shown)
VH: QVQLVQSGAEVKKPGASVKVSCKASGYIFIRYGISWVRQAPGQGLEWMGWISANNGYTNYAQKLQGRVTMTTDTSTSTAYMELRSLRSDDTAVYYCARDGGILTGYLDYFDHWGQGTLVTVSS
VL: DIQMTQSPSSLSASVGDRLTITCRASQSIASYLNWYQQKPGKAPKLLIYAASSLQSGVPSRFSGSGSGTDFTLTISSLQPEDFATYHCQQSYSTLGITFGPGTKVDIK
notes: also called mAb 278
B4: antibody 318 (antibody, V domains shown)
VH: QVQLVQSGPEVKKPGTSVKVSCKASGFTLTSSAMQWVRQARGQRLEWIGWIVVGSGNTNYAQKFQERVTITRDMSTSTAYMELSSLRSEDTAVYYCAAGRGYNSDFDYWGQGTLVTVSS
VL: AIRMTQSPGTLSLSPGERATLSCRASQSVSSSYLAWYQQRPGQAPRLLIYGTSSRATGIPDRFSGSGSGTDFTLTISRLEPEDFAVYYCQQYGYSVYTFGQGTKVDIK
notes: also called mAb 318
B5: antibody 281 (antibody, V domains shown)
VH: QVQLVESGGGLVQPGGSLRLSCAASGFPFSIYWMSWVRQAPGKGLEWVANIKQDGSEKYYVDSVKGRFTISRDNAKNSLYLHMNSLRGEDTAVYYCASRYYDFRPEAWFDYWGQGTLVTVSS
VL: not shown
B6: antibody 253H165L (antibody, V domains shown)
VH: not shown
VL: DIVMTQSPGTLSLSPGERATLSCRASQSVRSSYLAWYQQKPGQAPRLLIYGASRRGTGIPDRFSGSGSGTDFTLTISRLEPEDFAVYYCQQYGSSPWTFGQGTKVEIK
B7: antibody 165 (antibody, V domains shown)
VH: QVQLVQSGPEVKKPGTSVKVSCKASGFTFTSSAVQWVRQARGQRLEWIGWIVVGSGNTNYAQKFQESVTITRDMSTSTAYMELSSLRSEDTAVYYCAAPHCIGGSCHDAFDIWGQGTMVTVSS
VL: B6 VL
notes: also called mAb 165
B8: antibody 158 (antibody, V domains shown)
VH: EVQLLESGGDLIQPGGSLRLSCAASGVTVSSNYMSWVRQAPGKGLEWVSIIYPGGSTFYADSVKGRFTISRDNSKNTLYLQMHSLRAEDTAVYYCARDLGSGDMDVWGKGTTVTVSS
VL: DIVMTQSPSFLSASVGDRVTITCRASQGISSYLAWYQQKPGKAPKLLIQAASTLQSGVPSRFSGSGSGTEFTLTISSLQPEDFATYYCQQLNSYRYTFGQGTKVEIK
notes: also called mAb 158
B9: antibody 398 (antibody, V domains shown)
VH: QVQLVESGGGLVQPGGSLRLSCAASGFTVSSNYMTWVRQAPGKGLEWVSVIYSGGSTYYADSVKGRFTISRDNSKNTLYLQMNSLRADDTAVYYCARDSTADYDFWSGYYVGAFHIWGQGTMVTVSS
VL: QTVLTQPASVSGSPGQSITISCTGTSSDVGGYNYVSWYQQHPGKAPKLMIYEVTKRPSGVPDRFSGSKSGNTASLTVSGLQAEDEADYYCSSYAGSNNWVFGGGTKLTVL
notes: also called mAb 398
B10: antibody 269 (antibody, V domains shown)
VH: QVQLVESGGGLIQPGGSLRLSCAASGLTVNRNYMSWIRQAPGKGLEWVSVIYSGGSTFYADSVKGRFTISRDNSKNTLSLQMNSLRAEDTAIYYCARDFYEGSFDIWGQGTMVTVSS
VL: AIQLTQSPSFLSASIGDRVTITCRASQGISSYLAWYQQKPGKAPKLLIYAASTLQSGVPSRFSGSGSGTEFTLTISSLQPEDFASYYCQQLNSYPAPVFGPGTKVDIK
notes: also called mAb 269
B11: antibody 175 (antibody, V domains shown)
VH: EVQLVESGGGLIQPGGSLRLSCAASGLTVSRNYMSWVRQAPGKGLEWVSLIYSGGSTYYADSVKGRFTISRDNSKNTLYLQMNSLRAEDTAVYYCARDLRGEVWGQGTMVTVSS
VL: not shown
notes: also called mAb 175
B12: antibody 88 (antibody, V domains shown)
VH: QLQLQESGPGLVKPSQTLSLTCTVSGGSISSGSYNWTWIRQPAGKGLEWIGRIYNSGSTNYNPSLKSRVTISVDTSKNQLSLKVRSVTAADTAVYYCARHCSGGTCYPKYYYGMDVWGQGTTVTVSS
VL: QSALTQPPSVSEAPRQRVTISCSGSSSNIGNNAVNWYQQFPGKAPKLLIYYDDLLPSGVSDRFSGSKSGTSASLAISGVQSEDEADYYCAAWDDSLNVVVFGGGTKLTVL
notes: also called mAb 88
B13: Fab 75 (Fab, V domains shown)
VH: B2 VH
VL: B2 VL
B14: Fab of antibody 318 (Fab, V domains shown)
VH: B4 VH
VL: B4 VL
B15: Fab of antibody 281 (Fab, V domains shown)
VH: B5 VH
VL: not shown
B16: Fab of antibody 40 (Fab, V domains shown)
VH: QVQLVESGGGLVQPGGSLRLSCAVSGFTVSRNYMSWVRQAPGKGLEWVSLIYSGGSTFYADSVKGRFTISRDNSKNTLYLQMNSLRAEDTAVYYCARDLFHRSGYHDYWGQGTLVTVSS
VL: not shown
notes: also called 40 Fab; Fab 40
B17: Fab of antibody 158 (Fab, V domains shown)
VH: B8 VH
VL: B8 VL
notes: also called 158 Fab; Fab 158
B18: Fab of antibody 316 (Fab, V domains shown)
VH: not shown
VL: B9 VL with T2A, A8P, V10A, I18V, T54S, N98H
notes: also called 316 Fab; Fab 316
B19: Fab of antibody 398 (Fab, V domains shown)
VH: B9 VH
VL: B9 VL
B20: Fab of antibody 269 (Fab, V domains shown)
VH: B10 VH
VL: B10 VL
notes: also called 269 Fab; COVOX-269
B21: Fab of antibody 58 (Fab, V domains shown)
VH: QVQLVESGGGLVQPGRSLRLSCAASGFTFDDYAMHWVRQPPGKGLEWVSGVSWNSGTIGYADSVKGRFIISRDNAKNSLYLQMNSLKAEDTALYYCAREVGGTFGVLISREGGLDYWGQGTLVTVSS
VL: SYELTQPPSVSVAPGQTARITCGGNTIGSKSVHWYQQRPGQAPVLVVYDDSDRPSGIPERFSGSNSGNTATLTISRVEAGDEADYYCQVWDSSSDRVVFGGGTKLTVL
B22: Fab of antibody 175 (Fab, V domains shown)
VH: B11 VH
VL: not shown
B23: Fab of antibody 88 (Fab, V domains shown)
VH: B12 VH
VL: B12 VL
notes: also called 88 Fab; Fab 88
B24: Fab of antibody 222 (Fab, V domains shown)
VH: EVQLVESGGGLIQPGGSLRLSCAASGLTVSSNYMSWVRQAPGKGLEWVSVIYSGGSTFYADSVKGRFTISRDNSKNTLYLQMNSLGAEDTAVYYCARGEGSPGNWFDPWGQGTLVTVSS
VL: DVVMTQSPGTLSLSPGERATLSCRASQSVPSSYLAWYQQKPGQAPRLLIYGASTRATGIPDRFSGSGSGTDFTLTISRLEPEDFAVYYCQHYDTSPRFGGGTKVDIK

target: T1, SARS-CoV-2 receptor binding domain (RBD), native (SARS-CoV-2, UniProt P0DTC2 330-532); assay: method and antigen not stated there
T1 construct: range 330-532

| Binder | Kd [µg/mL] |
| --- | --- |
| B1 | 0.018 |

target: T1, SARS-CoV-2 receptor binding domain …; assay: crystal structure

| Binder | binding result |
| --- | --- |
| B2 | binds |

target: T2, SARS-CoV-2 spike receptor binding domain, native (SARS-CoV-2, UniProt P0DTC2 330-532); assay: BLI, RBD on AR2G biosensor, mAb as analyte
T2 construct: range 330-532

| Binder | Kd [nM] |
| --- | --- |
| B3 | 4.16 |
| B4 | 4.43 |
| B5 | 0.97 |
| B6 | 3.38 |
| B7 | 2.15 |
| B8 | 1.89 |
| B9 | 4.63 |
| B10 | 0.76 |
| B11 | 1.36 |
| B12 | 2.9 |

target: T3, SARS-CoV-2 spike receptor binding domain (RBD), His-tagged (SARS-CoV-2 (Wuhan-Hu-1 strain), UniProt P0DTC2 330-532); assay: X-ray crystal structure of the ternary complex RBD/Fab 253/Fab 75
T3 construct: range 330-532

| Binder | binding result |
| --- | --- |
| B13 | binds |

target: T4, SARS-CoV-2 receptor binding domain, native (501N) (SARS-CoV-2, UniProt P0DTC2 330-532); assay: BLI, RBD immobilised on AR2G biosensor, 1:1 fit
T4 construct: range 330-532

| Binder | Kd [nM] |
| --- | --- |
| B14 | 2.23 |
| B15 | 3.2 |
| B16 | 0.55 |
| B17 | 0.53 |
| B18 | 1.5 |
| B19 | 1.02 |
| B20 | 1.59 |
| B21 | 0.3 |
| B22 | 0.97 |
| B23 | 0.64 |
| B24 | 0.29 |
